Laboratory results as given in patent US20110070610.

B1: pACSH362 protease (SEQ ID NO:10 tagged HAV18 3C protease) (protein)
chain: MKVILLRDVPKIGKKGEIKEVSDGYARNYLIPRGFAKEYTEGLERAIKHEKEIEKRKKEREREESEKILKELKKRTHVVKVKAGEGGKIFGAVTAATVAEEISKTTGLKLDKRWFKLDKPIKELGEYSLEVSLPGGVKDTIKIRVEREESSSGSGSGSGSTLEIAGLVRKNLVQFGVGEKNGCVRWVMNALGVKDDWLLVPSHAYKFEKDYEMMEFYFNRGGTYYSISAGNVVIQSLDVGFQDVVLMKVPTIPKFRDITEHFIKKGDVPRALNRLATLVTTVNGTPMLISEGPLKMEEKATYVHKKNDGTTVDLTVDQAWRGKGEGLPGMCGGALVSSNQSIQNAILGIHVAGGNSILVAKLVTQEMFQNIDKKIESQ
B2: pACSH307 protease (SEQ ID NO:10 tagged TEV protease) (protein)
chain: MKVILLRDVPKIGKKGEIKEVSDGYARNYLIPRGFAKEYTEGLERAIKHEKEIEKRKKEREREESEKILKELKKRTHVVKVKAGEGGKIFGAVTAATVAEEISKTTGLKLDKRWFKLDKPIKELGEYSLEVSLPGGVKDTIKIRVEREESSSGSSGSSGSSGESLFKGPRDYNPISSTICHLTNESDGHTTSLYGIGFGPFIITNKHLFRRNNGTLLVQSLHGVFKVKNTTTLQQHLIDGRDMIIIRMPKDFPPFPQKLKFREPQREERICLVTTNFQTKSMSSMVSDTSCTFPSSDGIFWKHWIQTKDGQCGSPLVSTRDGFIVGIHSASNFTNTNNYFTSVPKNFMELLTNQEAQQWVSGWRLNADSVLWGGHKVFMVKPEEPFQPVKEATQLMN

What was measured:
[1] = biological target: T1, pACSH360 fusion protein (S661 peptide with N-terminal SEQ ID NO:19 tag and HAV18 3C cleavage site linker)
T1 chain: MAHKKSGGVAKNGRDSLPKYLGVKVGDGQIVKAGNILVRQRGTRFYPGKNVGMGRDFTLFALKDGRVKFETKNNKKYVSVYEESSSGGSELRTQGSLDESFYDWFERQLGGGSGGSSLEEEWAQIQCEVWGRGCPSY

[2] = biological target: T2, pACSH248 fusion protein (S661 peptide with N-terminal SEQ ID NO:19 tag and TEV cleavage site linker)
T2 chain: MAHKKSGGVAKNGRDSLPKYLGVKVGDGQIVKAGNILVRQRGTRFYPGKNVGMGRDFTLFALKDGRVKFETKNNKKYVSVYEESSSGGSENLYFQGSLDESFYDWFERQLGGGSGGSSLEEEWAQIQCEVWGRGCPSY

Protein	cleavage of fusion protein, LC-MS, 7 hours at 37° C., enzyme to substrate ratio 1:10 or 1:50 [1]	cleavage of fusion protein, LC-MS, 8 hours, enzyme to substrate ratio 1:1 [2]
B1	A fragment representing the released S661 peptide was observed for both ratios	
B2		after incubation for 8 hours with an enzyme to substrate ration of 1:1, the major part of the S661 peptide was released from the pACSH248 fusion protein
